Source: patent US20140087995A1 (published 2014)
Numbered stars: 1 amine (or outer) side, 2 acyl side, 3 side chain; on linkers, the order of the positions; unused ones are H or OH. Bridge positions count the residues as written; N and C are the ends. Side chains are listed from the residue outwards. Ends that are not written are not given here. * marks the point of attachment. C20 diacid = O=C(O)CCCCCCCCCCCCCCCCCCC(=O)*; γGlu = O=C(O)[C@H](CCC(=O)[*:2])N[*:1]; AEEA = NCCOCCOCC(=O)O

T1: human amylin receptor (human, UniProt P30988 25-474; O60896 24-148, limits assumed)
T1 construct: whole, on cells; Calcitonin receptor plus RAMP-3 gives the amylin 3(a) receptor; membranes of Amylin 3(a)/CRE-luc cells were used; also called hAmylin-R; hAmylinR
T1 sequence (looked up) 1: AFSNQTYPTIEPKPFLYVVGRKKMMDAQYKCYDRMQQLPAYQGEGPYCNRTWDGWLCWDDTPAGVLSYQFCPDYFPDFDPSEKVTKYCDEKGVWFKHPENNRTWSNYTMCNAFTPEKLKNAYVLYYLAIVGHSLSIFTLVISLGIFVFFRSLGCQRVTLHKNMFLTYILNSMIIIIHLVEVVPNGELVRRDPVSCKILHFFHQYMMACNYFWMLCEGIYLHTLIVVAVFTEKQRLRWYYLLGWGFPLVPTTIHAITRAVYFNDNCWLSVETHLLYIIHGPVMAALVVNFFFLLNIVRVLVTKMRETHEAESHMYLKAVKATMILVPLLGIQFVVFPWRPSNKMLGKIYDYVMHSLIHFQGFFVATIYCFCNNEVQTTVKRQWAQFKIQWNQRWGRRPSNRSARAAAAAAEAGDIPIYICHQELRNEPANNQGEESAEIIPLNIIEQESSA
T1 sequence (looked up) 2: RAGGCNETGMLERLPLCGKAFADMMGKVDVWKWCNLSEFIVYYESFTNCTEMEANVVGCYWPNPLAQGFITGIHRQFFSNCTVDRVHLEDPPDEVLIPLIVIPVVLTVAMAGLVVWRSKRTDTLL


Target: T1, human amylin receptor
Assay: SPA competition binding, displacement of 125I-rat amylin from membranes with human amylin 3(a) receptor (Assay V)
Protocol: The binding assay was performed using scintillation proximity assay (SPA) beads (RPNQ0001) from PerkinElmer and cell membranes from the Amylin 3(a)/CRE-luc cells (as described in Assay (II)) were used. Membranes were prepared in the following way; the cells were rinsed with PBS and incubated with Versene for approximately 5 min before harvesting. The cells were flushed with PBS and the cell-suspension was centrifuged for 5 min at 1000 rpm. Cells were homogenized (ultrathurrax) in a buffer containing 20 mM Na-HEPES and 10 mM EDTA (pH 7.4) and centrifuged at 20.000 rpm for 15 min. The resulting pellet was resuspended, homogenized and centrifuged (20.000 rpm, 15 min) in a buffer containing 20 mM Na-HEPES and 0.1 mM EDTA (pH 7.4, buffer 2). The resulting pellet was resuspended in buffer 2 and protein concentration was measured (BCA protein Assay, Pierce). The homogenate was kept cold during the whole procedure. The membranes were kept at −80° C. until use. The assay was performed in a 384 well Optiplate (PerkinElmer) in a total volume of 40 ul. Membranes were mixed with SPA beads. Final concentration of membranes 35 ng/μL final and SPA beads was 0.05 mg/well. Test-compounds were dissolved in DMSO and further diluted in assay buffer (50 mM Hepes, pH 7.4, 1 mM CaCl2, 5 mM MgCl₂, 0.1% OA and 0.02% Tween20). […] The final mixture was incubated with shaking at 400 rpm for 120 min at 25° C. prior to centrifugation (1500 rpm, 10 min). Samples were analyzed on TopCounter™ (Packard). The IC₅₀ was calculated using (one site binding competition analysis) GraphPad Prism5 as a measure of receptor affinity.

Binder	IC50 [pM]
{C20 diacid-γGlu}-KCNTATCATQRLAEFLRHSSPNFGAIPSSTNVGSNTP-NH2 (disulfide 2-7; SMILES CC[C@H](C)[C@H](NC(=O)[C@H](C)NC(=O)CNC(=O)[C@H](Cc1ccccc1)NC(=O)[C@H](CC(N)=O)NC(=O)[C@@H]1CCCN1C(=O)[C@H](CO)NC(=O)[C@H](CO)NC(=O)[C@H](Cc1c[nH]cn1)NC(=O)[C@H](CCCNC(=N)N)NC(=O)[C@H](CC(C)C)NC(=O)[C@H](Cc1ccccc1)NC(=O)[C@H](CCC(=O)O)NC(=O)[C@H](C)NC(=O)[C@H](CC(C)C)NC(=O)[C@H](CCCNC(=N)N)NC(=O)[C@H](CCC(N)=O)NC(=O)[C@@H](NC(=O)[C@H](C)NC(=O)[C@@H]1CSSC[C@H](NC(=O)[C@H](CCCCN)NC(=O)CC[C@H](NC(=O)CCCCCCCCCCCCCCCCCCC(=O)O)C(=O)O)C(=O)N[C@@H](CC(N)=O)C(=O)N[C@@H]([C@@H](C)O)C(=O)N[C@@H](C)C(=O)N[C@@H]([C@@H](C)O)C(=O)N1)[C@@H](C)O)C(=O)N1CCC[C@H]1C(=O)N[C@@H](CO)C(=O)N[C@@H](CO)C(=O)N[C@H](C(=O)N[C@@H](CC(N)=O)C(=O)N[C@H](C(=O)NCC(=O)N[C@@H](CO)C(=O)N[C@@H](CC(N)=O)C(=O)N[C@H](C(=O)N1CCC[C@H]1C(N)=O)[C@@H](C)O)C(C)C)[C@@H](C)O, also called 14E, 17R, 21P, 27P, 37P)	72
{C20 diacid-γGlu-γGlu}-KCNTATCATQRLAEFLRHSSPNFGAIPSSTNVGSNTP-NH2 (disulfide 2-7; SMILES CC[C@H](C)[C@H](NC(=O)[C@H](C)NC(=O)CNC(=O)[C@H](Cc1ccccc1)NC(=O)[C@H](CC(N)=O)NC(=O)[C@@H]1CCCN1C(=O)[C@H](CO)NC(=O)[C@H](CO)NC(=O)[C@H](Cc1c[nH]cn1)NC(=O)[C@H](CCCNC(=N)N)NC(=O)[C@H](CC(C)C)NC(=O)[C@H](Cc1ccccc1)NC(=O)[C@H](CCC(=O)O)NC(=O)[C@H](C)NC(=O)[C@H](CC(C)C)NC(=O)[C@H](CCCNC(=N)N)NC(=O)[C@H](CCC(N)=O)NC(=O)[C@@H](NC(=O)[C@H](C)NC(=O)[C@@H]1CSSC[C@H](NC(=O)[C@H](CCCCN)NC(=O)CC[C@H](NC(=O)CC[C@H](NC(=O)CCCCCCCCCCCCCCCCCCC(=O)O)C(=O)O)C(=O)O)C(=O)N[C@@H](CC(N)=O)C(=O)N[C@@H]([C@@H](C)O)C(=O)N[C@@H](C)C(=O)N[C@@H]([C@@H](C)O)C(=O)N1)[C@@H](C)O)C(=O)N1CCC[C@H]1C(=O)N[C@@H](CO)C(=O)N[C@@H](CO)C(=O)N[C@H](C(=O)N[C@@H](CC(N)=O)C(=O)N[C@H](C(=O)NCC(=O)N[C@@H](CO)C(=O)N[C@@H](CC(N)=O)C(=O)N[C@H](C(=O)N1CCC[C@H]1C(N)=O)[C@@H](C)O)C(C)C)[C@@H](C)O, also called 14E, 17R, 21P, 27P, 37P)	196
KCNTATCATQRLAEFLRHSSPNFGAIPSSTNVGSNTY (C20 diacid-gGlu on the alpha amino group of the N-terminal residue; disulfide Cys2-Cys7 and C-terminal amide as in human amylin, also called 14E, 17R, 21P, 27P) [N^α1-[(4S)-4-carboxy-4-(19-carboxynonadecanoylamino)butanoyl]-[Glu14,Arg17,Pro21,Pro27]-h-amylin]	143
K([AEEA-C20 diacid])CNTATCATQRLANFLRHSSPNFGAIPSSTNVGHNTY-NH2 (disulfide 2-7; N-terminus assumed; SMILES CC[C@H](C)[C@H](NC(=O)[C@H](C)NC(=O)CNC(=O)[C@H](Cc1ccccc1)NC(=O)[C@H](CC(N)=O)NC(=O)[C@@H]1CCCN1C(=O)[C@H](CO)NC(=O)[C@H](CO)NC(=O)[C@H](Cc1c[nH]cn1)NC(=O)[C@H](CCCNC(=N)N)NC(=O)[C@H](CC(C)C)NC(=O)[C@H](Cc1ccccc1)NC(=O)[C@H](CC(N)=O)NC(=O)[C@H](C)NC(=O)[C@H](CC(C)C)NC(=O)[C@H](CCCNC(=N)N)NC(=O)[C@H](CCC(N)=O)NC(=O)[C@@H](NC(=O)[C@H](C)NC(=O)[C@@H]1CSSC[C@H](NC(=O)[C@@H](N)CCCCNC(=O)COCCOCCNC(=O)CCCCCCCCCCCCCCCCCCC(=O)O)C(=O)N[C@@H](CC(N)=O)C(=O)N[C@@H]([C@@H](C)O)C(=O)N[C@@H](C)C(=O)N[C@@H]([C@@H](C)O)C(=O)N1)[C@@H](C)O)C(=O)N1CCC[C@H]1C(=O)N[C@@H](CO)C(=O)N[C@@H](CO)C(=O)N[C@H](C(=O)N[C@@H](CC(N)=O)C(=O)N[C@H](C(=O)NCC(=O)N[C@@H](Cc1c[nH]cn1)C(=O)N[C@@H](CC(N)=O)C(=O)N[C@H](C(=O)N[C@@H](Cc1ccc(O)cc1)C(N)=O)[C@@H](C)O)C(C)C)[C@@H](C)O, also called 17R, 21P, 27P, 34H) [N^ε1-[2-[2-[2-(19-carboxynonadecanoylamino)ethoxy]ethoxy]acetyl]-[Arg17,Pro21,Pro27,His34]-h-amylin]	119
{C20 diacid-γGlu}-KCNTATCATQRLAEFLRHSSPNFGAIPSSTNVGSETY-NH2 (disulfide 2-7; SMILES CC[C@H](C)[C@H](NC(=O)[C@H](C)NC(=O)CNC(=O)[C@H](Cc1ccccc1)NC(=O)[C@H](CC(N)=O)NC(=O)[C@@H]1CCCN1C(=O)[C@H](CO)NC(=O)[C@H](CO)NC(=O)[C@H](Cc1c[nH]cn1)NC(=O)[C@H](CCCNC(=N)N)NC(=O)[C@H](CC(C)C)NC(=O)[C@H](Cc1ccccc1)NC(=O)[C@H](CCC(=O)O)NC(=O)[C@H](C)NC(=O)[C@H](CC(C)C)NC(=O)[C@H](CCCNC(=N)N)NC(=O)[C@H](CCC(N)=O)NC(=O)[C@@H](NC(=O)[C@H](C)NC(=O)[C@@H]1CSSC[C@H](NC(=O)[C@H](CCCCN)NC(=O)CC[C@H](NC(=O)CCCCCCCCCCCCCCCCCCC(=O)O)C(=O)O)C(=O)N[C@@H](CC(N)=O)C(=O)N[C@@H]([C@@H](C)O)C(=O)N[C@@H](C)C(=O)N[C@@H]([C@@H](C)O)C(=O)N1)[C@@H](C)O)C(=O)N1CCC[C@H]1C(=O)N[C@@H](CO)C(=O)N[C@@H](CO)C(=O)N[C@H](C(=O)N[C@@H](CC(N)=O)C(=O)N[C@H](C(=O)NCC(=O)N[C@@H](CO)C(=O)N[C@@H](CCC(=O)O)C(=O)N[C@H](C(=O)N[C@@H](Cc1ccc(O)cc1)C(N)=O)[C@@H](C)O)C(C)C)[C@@H](C)O, also called 14E, 17R, 21P, 27P, 35E)	794
K([AEEA-C20 diacid])CNTATCATQRLAHFLRHSSPNFGAIPSSTNVGSNTY-NH2 (disulfide 2-7; N-terminus assumed; SMILES CC[C@H](C)[C@H](NC(=O)[C@H](C)NC(=O)CNC(=O)[C@H](Cc1ccccc1)NC(=O)[C@H](CC(N)=O)NC(=O)[C@@H]1CCCN1C(=O)[C@H](CO)NC(=O)[C@H](CO)NC(=O)[C@H](Cc1c[nH]cn1)NC(=O)[C@H](CCCNC(=N)N)NC(=O)[C@H](CC(C)C)NC(=O)[C@H](Cc1ccccc1)NC(=O)[C@H](Cc1c[nH]cn1)NC(=O)[C@H](C)NC(=O)[C@H](CC(C)C)NC(=O)[C@H](CCCNC(=N)N)NC(=O)[C@H](CCC(N)=O)NC(=O)[C@@H](NC(=O)[C@H](C)NC(=O)[C@@H]1CSSC[C@H](NC(=O)[C@@H](N)CCCCNC(=O)COCCOCCNC(=O)CCCCCCCCCCCCCCCCCCC(=O)O)C(=O)N[C@@H](CC(N)=O)C(=O)N[C@@H]([C@@H](C)O)C(=O)N[C@@H](C)C(=O)N[C@@H]([C@@H](C)O)C(=O)N1)[C@@H](C)O)C(=O)N1CCC[C@H]1C(=O)N[C@@H](CO)C(=O)N[C@@H](CO)C(=O)N[C@H](C(=O)N[C@@H](CC(N)=O)C(=O)N[C@H](C(=O)NCC(=O)N[C@@H](CO)C(=O)N[C@@H](CC(N)=O)C(=O)N[C@H](C(=O)N[C@@H](Cc1ccc(O)cc1)C(N)=O)[C@@H](C)O)C(C)C)[C@@H](C)O, also called 14H, 17R, 21P, 27P) [N^ε1-[2-[2-[2-(19-carboxynonadecanoylamino)ethoxy]ethoxy]acetyl]-[His14,Arg17,Pro21,Pro27]-h-amylin]	61
